B1: Ribonucleoside-diphosphate reductase subunit M2 B (Homo sapiens), Q7LG56 (parent)
chain: MGDPERPEAAGLDQDERSSSDTNESEIKSNEEPLLRKSSRRFVIFPIQYPDIWKMYKQAQASFWTAEEVDLSKDLPHWNKLKADEKYFISHILAFFAASDGIVNENLVERFSQEVQVPEARCFYGFQILIENVHSEMYSLLIDTYIRDPKKREFLFNAIETMPYVKKKADWALRWIADRKSTFGERVVAFAAVEGVFFSGSFAAIFWLKKRGLMPGLTFSNELISRDEGLHCDFACLMFQYLVNKPSEERVREIIVDAVKIEQEFLTEALPVGLIGMNCILMKQYIEFVADRLLVELGFSKVFQAENPFDFMENISLEGKTNFFEKRVSEYQRFAVMAETTDNVFTLDADF
partner: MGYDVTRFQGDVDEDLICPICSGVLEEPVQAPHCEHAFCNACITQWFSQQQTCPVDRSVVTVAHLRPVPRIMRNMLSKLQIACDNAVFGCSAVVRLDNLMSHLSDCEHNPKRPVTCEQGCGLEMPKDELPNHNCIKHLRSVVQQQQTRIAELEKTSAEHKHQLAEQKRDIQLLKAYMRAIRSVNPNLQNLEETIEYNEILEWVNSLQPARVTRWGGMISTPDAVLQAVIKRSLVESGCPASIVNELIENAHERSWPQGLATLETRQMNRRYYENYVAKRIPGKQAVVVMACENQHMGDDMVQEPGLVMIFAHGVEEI
B2: Estrogen receptor beta (Homo sapiens), Q92731-3 (parent)
chain: MDIKNSPSSLNSPSSYNCSQSILPLEHGSIYIPSSYVDSHHEYPAMTFYSPAVMNYSIPSNVTNLEGGPGRQTTSPNVLWPTPGHLSPLVVHRQLSHLYAEPQKSPWCEARSLEHTLPVNRETLKRKVSGNRCASPVTGPGSKRDAHFCAVCSDYASGYHYGVWSCEGCKAFFKRSIQGHNDYICPATNQCTIDKNRRKSCQACRLRKCYEVGMVKCGSRRERCGYRLVRRQRSADEQLHCAGKAKRSGGHAPRVRELLLDALSPEQLVLTLLEAEPPHVLISRPSAPFTEASMMMSLTKLADKELVHMISWAKKIPGMRGNA
partner: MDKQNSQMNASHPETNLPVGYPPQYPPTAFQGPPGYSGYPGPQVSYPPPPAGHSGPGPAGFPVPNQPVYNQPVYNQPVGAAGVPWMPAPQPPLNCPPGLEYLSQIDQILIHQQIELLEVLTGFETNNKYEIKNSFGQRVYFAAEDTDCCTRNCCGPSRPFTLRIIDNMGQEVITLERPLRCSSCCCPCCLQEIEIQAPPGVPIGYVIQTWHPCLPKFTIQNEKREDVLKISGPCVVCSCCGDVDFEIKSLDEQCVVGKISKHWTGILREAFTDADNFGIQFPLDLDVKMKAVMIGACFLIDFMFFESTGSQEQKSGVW
B3: EF-hand domain-containing protein 1 (Homo sapiens), Q5JVL4 (parent)
chain: MVSNPVHGLPFLPGTSFKDSTKTAFHRSQTLSYRNGYAIVRRPTVGIGGDRLQFNQLSQAELDELASKAPVLTYGQPKQAPPADFIPAHVAFDKKVLKFDAYFQEDVPMSTEEQYRIRQVNIYYYLEDDSMSVIEPVVENSGILQGKLIKRQRLAKNDRGDHYHWKDLNRGINITIYGKTFRVVDCDQFTQVFLESQGIELNPPEKMALDPYTELRKQPLRKYVTPSDFDQLKQFLTFDKQVLRFYAIWDDTDSMYGECRTYIIHYYLMDDTVEIREVHERNDGRDPFPLLMNRQRVPKVLVENAKNFPQCVLEISDQEVLEWYTAKDFIVGKSLTILGRTFFIYDCDPFTRRYYKEKFGITDLPRIDVSKREPPPVKQELPPYNGFGLVEDSAQNCFALIPKAPKKDVIKMLVNDNKVLRYLAVLESPIPEDKDRRFVFSYFLATDMISIFEPPVRNSGIIGGKYLGRTKVVKPYSTVDNPVYYGPSDFFIGAVIEVFGHRFIILDTDEYVLKYMESNAAQYSPEALASIQNHVRKREAPAPEAESKQTEKDPGVQELEALIDTIQKQLKDHSCKDNIREAFQIYDKEASGYVDRDMFFKICESLNVPVDDSLVKELIRMCSHGEGKINYYNFVRAFSN

Variants of: B1
Settings: with rnf41_human RNF41, Q9H4P4

effect of a mutation on the interaction | Variant
with no effect | MGDPERPEAAGLDQDERSSSDTNESEIKSNEEPLLRKSSRRFVIFPIQYPDIWKMYKQAQASFWTAEEVDLSKDLPHWNKLKADEKYFISHILAFFAASDGIVNENLVERFSQEVQVPEARCFYGFQILIENVHSEMYSLLIDTYIRDPKKREFLFNAIETMPYVKKKADWALRWIADRKSTFGERVVAFAAVEGVFFSGSFAAIFWLKKRGLMPGLTFSNELISRDEGLHCDFAFLMFQYLVNKPSEERVREIIVDAVKIEQEFLTEALPVGLIGMNCILMKQYIEFVADRLLVELGFSKVFQAENPFDFMENISLEGKTNFFEKRVSEYQRFAVMAETTDNVFTLDADF [C236F]
disrupting interaction strength | MGDPERPEAAGLDQDERSSSDTNESEIKSNEEPLLRKSSRRFVIFPIQYPDIWKMYKQAQASFRTAEEVDLSKDLPHWNKLKADEKYFISHILAFFAASDGIVNENLVERFSQEVQVPEARCFYGFQILIENVHSEMYSLLIDTYIRDPKKREFLFNAIETMPYVKKKADWALRWIADRKSTFGERVVAFAAVEGVFFSGSFAAIFWLKKRGLMPGLTFSNELISRDEGLHCDFACLMFQYLVNKPSEERVREIIVDAVKIEQEFLTEALPVGLIGMNCILMKQYIEFVADRLLVELGFSKVFQAENPFDFMENISLEGKTNFFEKRVSEYQRFAVMAETTDNVFTLDADF [W64R]

Variants of: B2
Settings: with pls1_human PLSCR1, O15162

effect of a mutation on the interaction | Variant
with no effect | MDIKNSPSSLNSPSSYNCSQSILPLEHGSIYIPSSYVDSHHEYPAMTFYSPAVMNYSIPSNVTNLEGGPGRQTTSPNVLWPTPGHLSPLVVHRQLSHLYAEPQKSPWCEARSLEHTLPVNRETLKRKVSGNRCASPVTGPGSKRDAHFCAVCSDYASGYHYGVWSCEGCKAFFKRSIQGHNDYICPATNQCTIDKNRRKSCQACRLRKCYEVGMVKCGSRRERCGYRLVRRQRSADEQLHCAGKAKRSGGHAPRVRELLLDALSPEQLVLTLLEAEPPHVLISRPSAPLTEASMMMSLTKLADKELVHMISWAKKIPGMRGNA [F289L]

Variants of: B3
Settings: with ikzf3_human IKZF3, Q9UKT9
Sequence of ikzf3_human IKZF3, Q9UKT9 (Q9UKT9 whole entry): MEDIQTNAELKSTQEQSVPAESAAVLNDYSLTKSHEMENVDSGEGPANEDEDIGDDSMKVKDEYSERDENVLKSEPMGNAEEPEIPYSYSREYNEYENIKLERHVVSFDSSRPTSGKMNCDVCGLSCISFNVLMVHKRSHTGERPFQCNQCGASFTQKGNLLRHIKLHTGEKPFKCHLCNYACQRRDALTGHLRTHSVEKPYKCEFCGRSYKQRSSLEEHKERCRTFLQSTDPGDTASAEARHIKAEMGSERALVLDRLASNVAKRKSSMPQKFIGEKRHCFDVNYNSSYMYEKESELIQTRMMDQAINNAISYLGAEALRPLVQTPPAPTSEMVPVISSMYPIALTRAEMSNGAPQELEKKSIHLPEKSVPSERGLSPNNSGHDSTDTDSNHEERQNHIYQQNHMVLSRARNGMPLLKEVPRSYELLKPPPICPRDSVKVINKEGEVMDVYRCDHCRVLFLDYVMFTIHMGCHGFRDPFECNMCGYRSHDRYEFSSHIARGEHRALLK

effect of a mutation on the interaction | Variant
with no effect | T508R

Variants of: B3
Settings: with kctd4_human KCTD4, Q8WVF5
Sequence of kctd4_human KCTD4, Q8WVF5 (Q8WVF5 whole entry): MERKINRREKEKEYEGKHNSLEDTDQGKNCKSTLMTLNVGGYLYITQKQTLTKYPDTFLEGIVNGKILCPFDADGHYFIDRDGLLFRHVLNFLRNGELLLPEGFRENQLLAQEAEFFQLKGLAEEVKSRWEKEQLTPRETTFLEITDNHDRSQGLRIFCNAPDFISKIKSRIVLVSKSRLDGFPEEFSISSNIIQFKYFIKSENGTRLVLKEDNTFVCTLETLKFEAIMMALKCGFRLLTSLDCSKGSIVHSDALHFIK

effect of a mutation on the interaction | Variant
with no effect | T508R

Variants of: B3
Settings: with rim3a_human RIMBP3, Q9UFD9
Sequence of rim3a_human RIMBP3, Q9UFD9 (Q9UFD9 whole entry): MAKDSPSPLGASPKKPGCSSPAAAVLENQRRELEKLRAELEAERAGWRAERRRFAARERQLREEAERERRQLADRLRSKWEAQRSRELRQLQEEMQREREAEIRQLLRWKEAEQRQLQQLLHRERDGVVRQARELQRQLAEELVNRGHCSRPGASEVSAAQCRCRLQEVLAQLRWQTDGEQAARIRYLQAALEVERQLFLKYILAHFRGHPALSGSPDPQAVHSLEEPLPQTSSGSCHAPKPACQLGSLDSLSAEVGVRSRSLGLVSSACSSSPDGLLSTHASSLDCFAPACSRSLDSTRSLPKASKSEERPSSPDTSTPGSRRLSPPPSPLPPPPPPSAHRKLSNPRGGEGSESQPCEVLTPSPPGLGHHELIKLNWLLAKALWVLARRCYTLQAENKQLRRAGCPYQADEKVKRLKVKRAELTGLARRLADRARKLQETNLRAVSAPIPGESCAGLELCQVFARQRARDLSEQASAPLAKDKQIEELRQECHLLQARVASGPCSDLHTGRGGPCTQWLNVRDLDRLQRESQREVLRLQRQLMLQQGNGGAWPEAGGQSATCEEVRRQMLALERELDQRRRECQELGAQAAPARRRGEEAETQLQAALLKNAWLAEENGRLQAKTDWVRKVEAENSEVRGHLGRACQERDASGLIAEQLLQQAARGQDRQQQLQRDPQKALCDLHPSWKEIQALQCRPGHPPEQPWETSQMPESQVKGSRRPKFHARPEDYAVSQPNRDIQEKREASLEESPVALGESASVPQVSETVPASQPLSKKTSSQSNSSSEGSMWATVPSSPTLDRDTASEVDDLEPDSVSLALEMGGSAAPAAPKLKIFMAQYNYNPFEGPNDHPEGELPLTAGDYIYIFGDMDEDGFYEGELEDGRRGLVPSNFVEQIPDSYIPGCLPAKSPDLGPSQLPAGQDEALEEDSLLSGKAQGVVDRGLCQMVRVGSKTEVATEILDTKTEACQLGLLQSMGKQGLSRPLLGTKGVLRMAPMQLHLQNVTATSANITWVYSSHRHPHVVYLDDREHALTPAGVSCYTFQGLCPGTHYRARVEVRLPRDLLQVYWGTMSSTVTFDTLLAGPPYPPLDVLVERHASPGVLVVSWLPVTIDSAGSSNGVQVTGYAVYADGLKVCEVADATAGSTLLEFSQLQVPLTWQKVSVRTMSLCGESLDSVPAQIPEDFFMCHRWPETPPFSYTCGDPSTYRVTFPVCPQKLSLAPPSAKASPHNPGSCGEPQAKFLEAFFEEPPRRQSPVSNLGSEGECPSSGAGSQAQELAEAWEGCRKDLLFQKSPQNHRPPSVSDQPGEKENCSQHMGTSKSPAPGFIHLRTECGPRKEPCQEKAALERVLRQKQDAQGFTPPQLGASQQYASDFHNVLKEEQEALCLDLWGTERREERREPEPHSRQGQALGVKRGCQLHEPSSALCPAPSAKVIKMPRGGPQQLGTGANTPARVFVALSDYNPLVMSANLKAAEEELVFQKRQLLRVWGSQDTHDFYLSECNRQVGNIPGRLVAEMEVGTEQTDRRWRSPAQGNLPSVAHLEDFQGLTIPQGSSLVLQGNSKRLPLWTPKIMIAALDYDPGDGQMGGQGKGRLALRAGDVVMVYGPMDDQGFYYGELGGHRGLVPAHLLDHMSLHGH

effect of a mutation on the interaction | Variant
with no effect | T508R

Variants of: B3
Settings: with trip6_human TRIP6, Q15654
Sequence of trip6_human TRIP6, Q15654 (Q15654 whole entry): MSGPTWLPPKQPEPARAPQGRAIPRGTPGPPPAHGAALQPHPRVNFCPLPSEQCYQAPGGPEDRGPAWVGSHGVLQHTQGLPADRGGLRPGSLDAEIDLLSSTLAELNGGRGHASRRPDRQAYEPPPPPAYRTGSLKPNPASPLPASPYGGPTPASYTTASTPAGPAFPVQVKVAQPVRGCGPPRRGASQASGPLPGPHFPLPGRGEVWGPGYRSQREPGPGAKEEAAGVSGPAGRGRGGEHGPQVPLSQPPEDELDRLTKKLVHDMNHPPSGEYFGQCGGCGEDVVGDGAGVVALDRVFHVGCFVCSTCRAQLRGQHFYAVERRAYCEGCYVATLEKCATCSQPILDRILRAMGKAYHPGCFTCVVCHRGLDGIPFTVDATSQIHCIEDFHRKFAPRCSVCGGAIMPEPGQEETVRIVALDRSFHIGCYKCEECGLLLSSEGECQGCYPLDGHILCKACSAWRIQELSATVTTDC

effect of a mutation on the interaction | Variant
with no effect | T508R

Variants of: B3
Settings: with KRT15, P19012
Sequence of KRT15, P19012 (P19012 whole entry): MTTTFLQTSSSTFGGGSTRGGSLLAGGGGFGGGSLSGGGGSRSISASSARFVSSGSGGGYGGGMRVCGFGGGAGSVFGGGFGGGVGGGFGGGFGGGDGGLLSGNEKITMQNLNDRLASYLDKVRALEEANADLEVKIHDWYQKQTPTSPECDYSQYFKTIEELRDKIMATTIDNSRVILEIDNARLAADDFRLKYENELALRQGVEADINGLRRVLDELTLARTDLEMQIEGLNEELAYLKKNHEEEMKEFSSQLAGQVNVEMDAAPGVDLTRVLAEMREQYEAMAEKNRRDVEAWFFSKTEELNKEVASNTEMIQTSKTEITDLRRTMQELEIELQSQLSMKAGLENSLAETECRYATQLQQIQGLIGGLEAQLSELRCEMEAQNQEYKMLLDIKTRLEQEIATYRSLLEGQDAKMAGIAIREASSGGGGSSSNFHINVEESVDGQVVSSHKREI

effect of a mutation on the interaction | Variant
with no effect | T508R

Variants of: B3
Settings: with TCF4, P15884-3
Sequence of TCF4, P15884-3 (P15884 other isoform, or with tags, fused parts or gaps): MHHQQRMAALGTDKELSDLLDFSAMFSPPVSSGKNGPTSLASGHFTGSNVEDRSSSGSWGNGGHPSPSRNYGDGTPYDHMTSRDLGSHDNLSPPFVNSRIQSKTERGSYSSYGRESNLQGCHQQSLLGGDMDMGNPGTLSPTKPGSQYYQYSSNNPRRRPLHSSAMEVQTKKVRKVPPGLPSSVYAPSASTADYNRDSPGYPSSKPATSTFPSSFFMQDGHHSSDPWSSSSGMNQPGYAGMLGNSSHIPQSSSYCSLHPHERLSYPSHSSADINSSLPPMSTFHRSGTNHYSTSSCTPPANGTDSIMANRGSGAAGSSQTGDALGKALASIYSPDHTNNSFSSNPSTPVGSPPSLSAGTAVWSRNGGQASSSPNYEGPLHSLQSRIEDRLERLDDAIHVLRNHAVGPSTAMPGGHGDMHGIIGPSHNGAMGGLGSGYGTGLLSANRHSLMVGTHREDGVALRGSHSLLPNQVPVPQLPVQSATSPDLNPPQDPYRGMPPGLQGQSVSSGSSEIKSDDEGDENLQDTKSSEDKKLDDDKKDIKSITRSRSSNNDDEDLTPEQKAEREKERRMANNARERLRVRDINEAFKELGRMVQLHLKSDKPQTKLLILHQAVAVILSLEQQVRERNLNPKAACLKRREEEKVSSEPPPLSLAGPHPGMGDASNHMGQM

effect of a mutation on the interaction | Variant
disrupting interaction strength | T508R

Variants of: B3
Settings: with goga2_human GOLGA2, Q08379
Sequence of goga2_human GOLGA2, Q08379 (Q08379 whole entry): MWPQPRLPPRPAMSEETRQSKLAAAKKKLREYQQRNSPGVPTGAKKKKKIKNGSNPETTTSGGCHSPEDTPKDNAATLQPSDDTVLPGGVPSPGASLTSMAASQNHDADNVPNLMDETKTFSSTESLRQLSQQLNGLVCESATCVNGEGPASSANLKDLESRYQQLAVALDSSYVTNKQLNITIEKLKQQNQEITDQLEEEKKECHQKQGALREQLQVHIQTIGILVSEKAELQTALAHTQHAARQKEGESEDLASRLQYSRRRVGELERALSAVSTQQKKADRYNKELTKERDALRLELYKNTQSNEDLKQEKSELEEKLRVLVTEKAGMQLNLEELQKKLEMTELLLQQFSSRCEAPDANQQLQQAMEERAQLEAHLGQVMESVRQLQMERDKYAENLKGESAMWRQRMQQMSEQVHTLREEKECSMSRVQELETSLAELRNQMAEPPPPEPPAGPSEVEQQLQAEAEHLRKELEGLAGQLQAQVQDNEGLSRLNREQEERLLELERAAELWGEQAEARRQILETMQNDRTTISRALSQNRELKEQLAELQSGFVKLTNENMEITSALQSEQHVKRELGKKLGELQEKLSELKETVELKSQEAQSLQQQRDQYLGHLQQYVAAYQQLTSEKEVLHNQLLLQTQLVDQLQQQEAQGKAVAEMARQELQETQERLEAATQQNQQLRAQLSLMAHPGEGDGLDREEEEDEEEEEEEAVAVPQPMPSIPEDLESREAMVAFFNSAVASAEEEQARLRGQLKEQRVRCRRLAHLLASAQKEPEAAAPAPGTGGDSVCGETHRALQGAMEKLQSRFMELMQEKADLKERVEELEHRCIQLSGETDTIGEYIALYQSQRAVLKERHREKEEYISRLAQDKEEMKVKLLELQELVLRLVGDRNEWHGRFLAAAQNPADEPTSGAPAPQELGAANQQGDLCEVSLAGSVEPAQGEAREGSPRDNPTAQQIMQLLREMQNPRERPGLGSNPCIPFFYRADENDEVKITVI

effect of a mutation on the interaction | Variant
with no effect | T508R

— IntAct's records for PubMed 25910212
